Experimental data as given in patent US11306156.
Where “and” joins values, the source holds several entries; their conditions need not be identical. Equal entries are not always repeated.

Experiments:
[1] = target: D3H44 light chain F116A_L135V (Kabat), N-terminal HA or FLAG tag; test: LCCA co-expression, competing light chain m35, L1:L2 DNA 1:3 normalized to 1:1, SPR tag read-out
[2] = target: D3H44 light chain S131T_L135F_S176F_T178F (Kabat), N-terminal HA or FLAG tag; test: LCCA co-expression, competing light chain m34, L1:L2 DNA 1:3 normalized to 1:1, SPR tag read-out
[3] = target: D3H44 light chain L135W_S176L (Kabat), N-terminal HA or FLAG tag; test: as above
[4] = target: D3H44 light chain F116A_L135V (Kabat), N-terminal HA or FLAG tag; test: LCCA co-expression, competing light chain m33, L1:L2 DNA 1:3 normalized to 1:1, SPR tag read-out
[5] = target: D3H44 light chain F116A_L135V (Kabat), N-terminal HA or FLAG tag; test: LCCA co-expression, competing light chain m35, L1:L2 DNA 1:9 normalized to 1:1, SPR tag read-out
[6] = target: D3H44 light chain S131T_L135F_S176F_T178F (Kabat), N-terminal HA or FLAG tag; test: LCCA co-expression, competing light chain m34, L1:L2 DNA 1:9 normalized to 1:1, SPR tag read-out
[7] = target: D3H44 light chain L135W_S176L (Kabat), N-terminal HA or FLAG tag; test: as above
[8] = target: D3H44 light chain F116A_L135V (Kabat), N-terminal HA or FLAG tag; test: LCCA co-expression, competing light chain m33, L1:L2 DNA 1:9 normalized to 1:1, SPR tag read-out
[9] = target: D3H44 Fab heavy chain L143E_K145T; test: LCCA, L1:L2 DNA 1:3 normalised to 1:1, SPR of light chain tags; competitor m32
[10] = target: D3H44 light chain Q124R_Q160K_T178R (Kabat) with N-terminal HA or FLAG tag; test: LCCA, SPR read-out of light-chain tags; light-chain DNA 1:3 normalized to 1:1; competing light chain m17
[11] = target: D3H44 light chain Q124R_Q160K_T178R (Kabat) with N-terminal HA or FLAG tag; test: LCCA, SPR read-out of light-chain tags; light-chain DNA 1:3 normalized to 1:1; competing light chain m25
[12] = target: D3H44 light chain Q124E_T178E (Kabat) with N-terminal HA or FLAG tag; test: LCCA, SPR read-out of light-chain tags; light-chain DNA 1:3 normalized to 1:1; competing light chain m20
[13] = target: D3H44 light chain Q124E_Q160E_T178E (Kabat) with N-terminal HA or FLAG tag; test: as above
[14] = target: D3H44 light chain Q124E_Q160E_T180E (Kabat) with N-terminal HA or FLAG tag; test: as above
[15] = target: D3H44 light chain S131E (Kabat) with N-terminal HA or FLAG tag; test: as above
[16] = target: D3H44 light chain Q124R (Kabat) with N-terminal HA or FLAG tag; test: LCCA, SPR read-out of light-chain tags; light-chain DNA 1:3 normalized to 1:1; competing light chain m24
[17] = target: D3H44 light chain Q124R_Q160K_T178R (Kabat) with N-terminal HA or FLAG tag; test: LCCA, SPR read-out of light-chain tags; light-chain DNA 1:3 normalized to 1:1; competing light chain m27
[18] = target: D3H44 light chain Q124E_V133E_Q160F (Kabat) with N-terminal HA or FLAG tag; test: LCCA, SPR read-out of light-chain tags; light-chain DNA 1:3 normalized to 1:1; competing light chain m23
[19] = target: D3H44 light chain Q124R_Q160K_T178R (Kabat) with N-terminal HA or FLAG tag; test: LCCA, SPR read-out of light-chain tags; light-chain DNA 1:3 normalized to 1:1; competing light chain m30
[20] = target: D3H44 light chain Q124R_Q160K_T178R (Kabat) with N-terminal HA or FLAG tag; test: LCCA, SPR read-out of light-chain tags; light-chain DNA 1:3 normalized to 1:1; competing light chain m22
[21] = target: D3H44 light chain Q124E_S131T_T178F_T180E (Kabat) with N-terminal HA or FLAG tag; test: LCCA, SPR read-out of light-chain tags; light-chain DNA 1:3 normalized to 1:1; competing light chain m20
[22] = target: D3H44 Fab heavy chain L143A_Q179K; test: LCCA, L1:L2 DNA 1:3 normalised to 1:1, SPR of light chain tags; competitor m33
[23] = target: D3H44 Fab heavy chain L143E_K145T_S188L; test: as above
[24] = target: D3H44 light chain Q124R_T178R (Kabat) with N-terminal HA or FLAG tag; test: LCCA, SPR read-out of light-chain tags; light-chain DNA 1:3 normalized to 1:1; competing light chain m22
[25] = target: D3H44 light chain T178R (Kabat) with N-terminal HA or FLAG tag; test: LCCA, SPR read-out of light-chain tags; light-chain DNA 1:3 normalized to 1:1; competing light chain m17
[26] = target: D3H44 light chain Q124R_T178K (Kabat) with N-terminal HA or FLAG tag; test: as above
[27] = target: D3H44 light chain Q124R_T178R (Kabat) with N-terminal HA or FLAG tag; test: as above
[28] = target: D3H44 light chain Q124K_T178R (Kabat) with N-terminal HA or FLAG tag; test: as above
[29] = target: D3H44 light chain Q124E_S131T_T178Y_T180E (Kabat) with N-terminal HA or FLAG tag; test: LCCA, SPR read-out of light-chain tags; light-chain DNA 1:3 normalized to 1:1; competing light chain m20
[30] = target: D3H44 light chain Q124E_S176L_T180E (Kabat) with N-terminal HA or FLAG tag; test: as above
[31] = target: D3H44 light chain Q124R_Q160K_T178R (Kabat) with N-terminal HA or FLAG tag; test: LCCA, SPR read-out of light-chain tags; light-chain DNA 1:3 normalized to 1:1; competing light chain m29
[32] = target: D3H44 light chain Q124R_T178R (Kabat) with N-terminal HA or FLAG tag; test: LCCA, SPR read-out of light-chain tags; light-chain DNA 1:9 normalized to 1:1; competing light chain m17
[33] = target: D3H44 light chain Q124E_Q160E_T180E (Kabat) with N-terminal HA or FLAG tag; test: LCCA, SPR read-out of light-chain tags; light-chain DNA 1:3 normalized to 1:1; competing light chain m26
[34] = target: D3H44 light chain T178R (Kabat) with N-terminal HA or FLAG tag; test: LCCA, SPR read-out of light-chain tags; light-chain DNA 1:3 normalized to 1:1; competing light chain m19
[35] = target: D3H44 light chain Q124E_T180E (Kabat) with N-terminal HA or FLAG tag; test: LCCA, SPR read-out of light-chain tags; light-chain DNA 1:3 normalized to 1:1; competing light chain m18
[36] = target: D3H44 light chain Q124E_Q160E_T180E (Kabat) with N-terminal HA or FLAG tag; test: as above
[37] = target: D3H44 light chain Q124E_S131T_T178F_T180E (Kabat) with N-terminal HA or FLAG tag; test: LCCA, SPR read-out of light-chain tags; light-chain DNA 1:3 normalized to 1:1; competing light chain m21
[38] = target: D3H44 light chain Q124E_Q160E_T180E (Kabat) with N-terminal HA or FLAG tag; test: as above
[39] = target: D3H44 light chain Q124E_Q160E_T180E (Kabat) with N-terminal HA or FLAG tag; test: LCCA, SPR read-out of light-chain tags; light-chain DNA 1:3 normalized to 1:1; competing light chain m16
[40] = target: D3H44 light chain Q124R_Q160K_T178R (Kabat) with N-terminal HA or FLAG tag; test: LCCA, SPR read-out of light-chain tags; light-chain DNA 1:3 normalized to 1:1; competing light chain m28
[41] = target: D3H44 light chain Q124E_Q160E_T180E (Kabat) with N-terminal HA or FLAG tag; test: LCCA, SPR read-out of light-chain tags; light-chain DNA 1:9 normalized to 1:1; competing light chain m21

Substance: D3H44 Fab heavy chain A139W_S188L (Kabat), C-terminal ABD2-His6 tag
- H2L2:H2L1 normalized median ratio [1]: 66 of 100
- H2L2:H2L1 normalized median ratio [2]: 41 of 100
- H2L2:H2L1 normalized median ratio [3]: 34 of 100
- H2L2:H2L1 normalized median ratio [4]: 59 of 100
- H2L2:H2L1 normalized median ratio [5]: 75 of 100
- H2L2:H2L1 normalized median ratio [6]: 45 of 100
- H2L2:H2L1 normalized median ratio [7]: 25 of 100
- H2L2:H2L1 normalized median ratio [8]: 55 of 100

Substance: D3H44 light chain Q124R_T178R
- H1L1:H1L2 normalized median scalar value ln(r1/f1) [9]: -0.16

Substance: D3H44 Fab heavy chain A139G_F174V_V190A (Kabat), C-terminal ABD2-His6 tag
- H1L1:H1L2 normalized median ratio [2]: 51 of 100
- H1L1:H1L2 normalized median scalar value ln(r1/f1) [2]: 0.03
- H1L1:H1L2 normalized median ratio [4]: 49 of 100
- H1L1:H1L2 normalized median ratio [6]: 60 of 100
- H1L1:H1L2 normalized median scalar value ln(r1/f1) [6]: 0.42
- H1L1:H1L2 normalized median ratio [8]: 40 of 100

Substance: D3H44 Fab heavy chain L143E_K145T (Kabat) with C-terminal ABD2-His6 tag
- H1L1:H1L2 normalized median ratio [10]: 72%
- H1L1:H1L2 normalized median scalar value ln(r1/f1) [10]: 0.95 and 0.96
- H1L1:H1L2 normalized median ratio [11]: 59%
- H1L1:H1L2 normalized median scalar value ln(r1/f1) [11]: 0.37
- H1L1:H1L2 normalized median ratio [12]: 41%
- H1L1:H1L2 normalized median ratio [13]: 41%
- H1L1:H1L2 normalized median ratio [14]: 28%
- H1L1:H1L2 normalized median ratio [15]: 53%
- H1L1:H1L2 normalized median ratio [16]: 85%
- H1L1:H1L2 normalized median scalar value ln(r1/f1) [16]: 1.75
- H1L1:H1L2 normalized median ratio [17]: 59%
- H1L1:H1L2 normalized median scalar value ln(r1/f1) [17]: 0.36
- H1L1:H1L2 normalized median ratio [18]: 15%
- H1L1:H1L2 normalized median ratio [19]: 47%
- H1L1:H1L2 normalized median scalar value ln(r1/f1) [19]: -0.14

Substance: D3H44 Fab heavy chain Q179R (Kabat) with C-terminal ABD2-His6 tag
- H2L2:H2L1 normalized median ratio [20]: 4%
- H2L2:H2L1 normalized median ratio [21]: 96%
- H2L2:H2L1 normalized median ratio [15]: 97%
- H2L2:H2L1 normalized median ratio [19]: 3%

Substance: D3H44 light chain Q124E_V133Y_T180E
- H1L1:H1L2 normalized median ratio [22]: 96%
- H1L1:H1L2 normalized median scalar value ln(r1/f1) [22]: 3.13
- H2L2:H2L1 normalized median ratio [23]: 44%

Substance: D3H44 Fab heavy chain S186R (Kabat) with C-terminal ABD2-His6 tag
- H2L2:H2L1 normalized median ratio [20]: 10%
- H2L2:H2L1 normalized median ratio [24]: 10%
- H2L2:H2L1 normalized median ratio [25]: 28%
- H2L2:H2L1 normalized median ratio [10]: 20%
- H2L2:H2L1 normalized median ratio [26]: 17%
- H2L2:H2L1 normalized median ratio [27]: 19%
- H2L2:H2L1 normalized median ratio [28]: 18%
- H2L2:H2L1 normalized median ratio [11]: 5%
- H2L2:H2L1 normalized median ratio [12]: 96%
- H2L2:H2L1 normalized median ratio [21]: 90%
- H2L2:H2L1 normalized median ratio [13]: 95%
- H2L2:H2L1 normalized median ratio [29]: 88%
- H2L2:H2L1 normalized median ratio [30]: 95%
- H2L2:H2L1 normalized median ratio [14]: 80%
- H2L2:H2L1 normalized median ratio [31]: 12%
- H2L2:H2L1 normalized median ratio [32]: 14%
- H2L2:H2L1 normalized median ratio [33]: 83%
- H2L2:H2L1 normalized median ratio [34]: 4%
- H2L2:H2L1 normalized median ratio [17]: 4%
- H2L2:H2L1 normalized median ratio [35]: 96%
- H2L2:H2L1 normalized median ratio [36]: 72%
- H2L2:H2L1 normalized median ratio [37]: 90%
- H2L2:H2L1 normalized median ratio [38]: 81%
- H2L2:H2L1 normalized median ratio [39]: 82%
- H2L2:H2L1 normalized median ratio [40]: 5%
- H2L2:H2L1 normalized median ratio [41]: 86%

Substance: D3H44 Fab heavy chain A139G_V190A (Kabat), C-terminal ABD2-His6 tag
- H1L1:H1L2 normalized median ratio [1]: 68 of 100
- H1L1:H1L2 normalized median ratio [3]: 32 of 100
- H1L1:H1L2 normalized median scalar value ln(r1/f1) [3]: -0.77
- H1L1:H1L2 normalized median ratio [5]: 28 of 100
- H1L1:H1L2 normalized median ratio [7]: 72 of 100
- H1L1:H1L2 normalized median scalar value ln(r1/f1) [7]: 0.94
